# Laboratory results published in article PMC6452516, “Biochemical characterization of three new α-olefin-producing P450 fatty acid decarboxylases with a halophilic property” (Biotechnology for Biofuels, 2019).
# Assays:
# Assay in all cases: GC of initial substrate consumption, Michaelis-Menten fit
# Conditions in all cases: 330 μM H2O2 as co-substrate, pH 7.4, 50 mM NaH2PO4, 500 mM NaCl, 10% glycerol, 30 °C, 15–40 nM enzyme
# [1] = substrate: CCCCCCCCCCCC(=O)O; format: biochemical, Jeotgalicoccus aerolatus
# Source text: GC of initial substrate consumption, Michaelis-Menten fit on OleTJH
# [2] = substrate: CCCCCCCCCCCC(=O)O; format: biochemical, Jeotgalicoccus sp. ATCC 8456
# Source text: GC of initial substrate consumption, Michaelis-Menten fit on OleTJE
# [3] = substrate: CCCCCCCCCCCC(=O)O; format: biochemical, Lacicoccus qingdaonensis
# Source text: GC of initial substrate consumption, Michaelis-Menten fit on OleTSQ
protein,measurement,setting,value
"OleTJH (Jeotgalicoccus aerolatus) (protein, recombinant, codon-optimized gene in pET28b (NdeI/XhoI), N-terminal His6 tag, E. coli BL21(DE3), Ni-NTA) MASLKRDKGLDNTLKVMKQGYLYTTNQRNRLNTTVFETKALGGKPFAVVTGKEGAEMFYNNDIVQREGMLPKRIVNTLFGKGAIHTIDGKKHVDRKALFMSLMTEGNLNYVRELTRTLWQANTQRMESMDEVNIYRESIVLLTKVGTRWAGVQAPPEQIERIATDMDIMIDSFKGLGGVFKGYKESKAARRRVEDWLEDQILETRKGNIHPPEGTALYEFAHWEDYLGNPMDSRNCAIDLMNTFRPLIAINRFVSFGLLAMHDNPVSREKIKSEPDYAYKFAQEVRRYYPFVPFLPGKAKTDIDFQGVTIPAGHGLAIDVYGTLHDESLWEDPNEFRPERFEGWDGSPFDLIPQGGGDYWTNHRCAGEWITVIIMEETMKYFAEKVTYDVPEQDLTVDLNSIPGYVKSGFVIKNVQEVVDRR",Km,[1],46 ± 15 µM
same,kcat,[1],15.2 ± 1.88 s⁻¹
same,kcat/Km,[1],333000 M⁻¹ s⁻¹
"OleTJE (Jeotgalicoccus sp. ATCC 8456) (protein, purified recombinant P450 from E. coli, His-tagged (Ni-NTA); cloning of this control enzyme not described here) MATLKRDKGLDNTLKVLKQGYLYTTNQRNRLNTSVFQTKALGGKPFVVVTGKEGAEMFYNNDVVQREGMLPKRIVNTLFGKGAIHTVDGKKHVDRKALFMSLMTEGNLNYVRELTRTLWHANTQRMESMDEVNIYRESIVLLTKVGTRWAGVQAPPEDIERIATDMDIMIDSFRALGGAFKGYKASKEARRRVEDWLEEQIIETRKGNIHPPEGTALYEFAHWEDYLGNPMDSRTCAIDLMNTFRPLIAINRFVSFGLHAMNENPITREKIKSEPDYAYKFAQEVRRYYPFVPFLPGKAKVDIDFQGVTIPAGVGLALDVYGTTHDESLWDDPNEFRPERFETWDGSPFDLIPQGGGDYWTNHRCAGEWITVIIMEETMKYFAEKITYDVPEQDLEVDLNSIPGYVKSGFVIKNVREVVDRT",Km,[2],41 ± 4 µM
same,kcat,[2],14.3 ± 0.467 s⁻¹
same,kcat/Km,[2],350000 M⁻¹ s⁻¹
"OleTSQ (Lacicoccus qingdaonensis) (protein, recombinant, codon-optimized gene in pET28b (NdeI/XhoI), N-terminal His6 tag, E. coli BL21(DE3), Ni-NTA) MATIKRDKGLDNSVKVMKQGYLYTTNQRERLGVTDGVFETRALGGKRIIVLSGKDGAELFYDNDKIERSGTLPKRVVNTLFGKGAIHTTTGKVHIDRKALFMSLMTEGNLKYLRELTRNLWFANTQRMESMDQVNVYRESIIVLTKVGTRWAGVQAPEKEIENIATDMDIMIDSFKAIGSAFKGYREAKAARRRVEDWLEDQIIQTRKGKIHPPKGTALYEFAHWKDYKGEPMDSRLCGIDLMNTFRPLIAINRFVAFGALAMYENPVAREKIKQDDDYAYMFAQEVRRFYPFVPYLPAKAKVDFQYKGYEIEKDTMLALDIYGTMHDPNVWEDPNEFYPERFKDWDGSPFDLIPQGGGDYHTNHRCAGEWMTVIIMEETMKYFASRINYDVPEQDLTVDLNSLPGYIKSGFVIENVQENVDRT",Km,[3],35 ± 10 µM
same,kcat,[3],9.5 ± 0.917 s⁻¹
same,kcat/Km,[3],267000 M⁻¹ s⁻¹
